According to patent US7205275 (dated 2007):
Primed or numbered codes have the meaning given here. Where no end group is shown, it is not given here. [ ]: non-standard residue; d: D form. Fc(3) = Fc: non-antigen-binding fragment of an antibody from proteolytic digestion of a whole antibody (vehicle); Fc = immunoglobulin Fc domain fused to the peptide (peptibody); Fc(7) = Fc domain, peptide fused N- or C-terminal to it; Fc″ = Fc domain of the peptibody fusion

T1: human Ang-2 (human, UniProt O15123)
T1 chain: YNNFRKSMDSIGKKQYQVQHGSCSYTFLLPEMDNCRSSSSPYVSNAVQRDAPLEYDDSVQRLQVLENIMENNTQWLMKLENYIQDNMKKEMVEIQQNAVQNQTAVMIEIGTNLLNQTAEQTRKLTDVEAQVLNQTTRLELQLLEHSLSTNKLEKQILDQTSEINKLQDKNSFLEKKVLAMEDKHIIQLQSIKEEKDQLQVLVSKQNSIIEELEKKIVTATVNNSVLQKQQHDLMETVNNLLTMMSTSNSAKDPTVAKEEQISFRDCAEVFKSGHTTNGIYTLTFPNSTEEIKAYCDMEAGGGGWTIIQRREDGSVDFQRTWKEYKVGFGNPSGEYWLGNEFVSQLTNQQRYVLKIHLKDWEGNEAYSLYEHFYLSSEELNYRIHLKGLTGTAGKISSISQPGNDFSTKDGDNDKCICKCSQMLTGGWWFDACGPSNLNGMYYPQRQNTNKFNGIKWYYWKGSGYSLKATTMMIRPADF

T2: human Ang-1 (human, UniProt Q15389)
T2 chain: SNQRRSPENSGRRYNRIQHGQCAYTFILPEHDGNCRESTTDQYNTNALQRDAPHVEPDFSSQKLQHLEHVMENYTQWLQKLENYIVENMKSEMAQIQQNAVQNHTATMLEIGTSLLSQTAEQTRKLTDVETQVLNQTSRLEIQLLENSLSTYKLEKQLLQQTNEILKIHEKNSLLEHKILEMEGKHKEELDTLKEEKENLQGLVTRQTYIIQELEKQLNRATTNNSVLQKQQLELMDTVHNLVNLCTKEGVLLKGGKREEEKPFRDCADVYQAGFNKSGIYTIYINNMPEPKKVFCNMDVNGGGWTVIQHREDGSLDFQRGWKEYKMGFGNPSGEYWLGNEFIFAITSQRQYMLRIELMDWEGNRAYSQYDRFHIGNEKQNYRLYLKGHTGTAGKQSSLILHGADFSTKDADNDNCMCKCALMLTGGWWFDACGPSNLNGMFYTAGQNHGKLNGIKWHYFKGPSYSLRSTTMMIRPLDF

T3: mouse Ang-2 (mouse, UniProt O35608)
T3 chain: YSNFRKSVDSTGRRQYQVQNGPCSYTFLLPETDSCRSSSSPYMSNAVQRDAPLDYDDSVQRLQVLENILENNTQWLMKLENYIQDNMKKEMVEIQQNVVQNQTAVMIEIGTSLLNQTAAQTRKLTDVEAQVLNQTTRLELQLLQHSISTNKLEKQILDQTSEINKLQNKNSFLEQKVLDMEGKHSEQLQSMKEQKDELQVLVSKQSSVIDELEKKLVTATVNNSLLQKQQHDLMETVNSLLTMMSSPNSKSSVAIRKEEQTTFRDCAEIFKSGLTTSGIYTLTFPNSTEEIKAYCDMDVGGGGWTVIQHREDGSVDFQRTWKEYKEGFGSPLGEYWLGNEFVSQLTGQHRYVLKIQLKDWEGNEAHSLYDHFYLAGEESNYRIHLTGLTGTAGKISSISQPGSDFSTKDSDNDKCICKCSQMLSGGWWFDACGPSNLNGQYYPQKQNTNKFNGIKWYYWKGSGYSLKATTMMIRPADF

T4: rat Ang-2 (rAng-2) (rat, UniProt O35462)
T4 chain: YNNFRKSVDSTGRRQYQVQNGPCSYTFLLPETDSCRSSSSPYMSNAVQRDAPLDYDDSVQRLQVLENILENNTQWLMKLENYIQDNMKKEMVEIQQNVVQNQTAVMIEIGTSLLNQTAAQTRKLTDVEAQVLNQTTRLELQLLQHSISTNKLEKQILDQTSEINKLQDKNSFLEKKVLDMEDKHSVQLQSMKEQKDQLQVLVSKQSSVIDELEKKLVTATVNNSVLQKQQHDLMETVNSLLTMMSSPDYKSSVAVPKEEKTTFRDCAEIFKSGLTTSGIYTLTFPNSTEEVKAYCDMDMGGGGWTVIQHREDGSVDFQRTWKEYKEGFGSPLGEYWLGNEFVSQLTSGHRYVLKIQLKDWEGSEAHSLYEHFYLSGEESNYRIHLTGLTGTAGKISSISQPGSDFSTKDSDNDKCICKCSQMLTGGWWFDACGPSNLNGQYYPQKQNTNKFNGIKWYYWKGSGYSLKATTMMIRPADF

B1: C17 (N) (peptide)
chain: MGAQQYGCDGFLYGCMINLEGGGGG[Fc(7)]
modifications: not fully specified (bridges); printed as MGAQ-QYGCDGFLYGCMINLE-GGGGG-Fc; cysteine pairing not given here; also: Fc fusion domain at position 26
B2: Con1 (N) (peptide)
chain: MGAQKRPCEEIFGGCTYQLEGGGGG[Fc]
modifications: not fully specified (bridges); printed as MGAQ-KRPCEEIFGGCTYQLEGGGGG-Fc; cysteine pairing not given here; also: Fc fusion domain at position 26
B3: TN8-8 (N) (peptide)
chain: MGAQKRPCEEMWGGCNYDLEGGGGGX
modifications: not fully specified (C-terminus, bridges); printed as MGAQ-KRPCEEMWGGCNYDLEGGGGG-Fc; cysteine pairing not given here
B4: TN8-14 (N) (peptide)
chain: MGAQHQICKWDPWTCKHWLEGGGGGX
modifications: not fully specified (C-terminus, bridges); printed as MGAQ-HQICKWDPWTCKHWLEGGGGG-Fc; cysteine pairing not given here
B5: 2xL1 (N) (designed binder)
chain: MGAQKFNPLDELEETLYEQFTFQQGGGGGGGGKFNPLDELEETLYEQFTFQQLEGGGGG[Fc(7)]
B6: Con1-6 (C) (peptide)
chain: M[Fc]GGGGGAQGQDLRPCEDMFGCGTKDWYGLE
modifications: not fully specified (bridges); cysteine pairing not given here; also: Fc fusion domain at position 2
B7: Con1-2 (C) (peptide)
chain: M[Fc]GGGGGAQQTWDDPCMHILGPVTWRRCILE
modifications: not fully specified (bridges); cysteine pairing not given here; also: Fc fusion domain at position 2
B8: Con4 (N) 1K-WT (peptide)
chain: MQEECEWDPWTCEHMGSGSATGGSGSTASSGSGSATHLEGGGGG[Fc]
modifications: not fully specified (bridges); cysteine pairing not given here; also: Fc fusion domain at position 45

Molecular target: T1, human Ang-2
Assay: competition ELISA vs Tie-2

How did the IC50 turn out when B1 was run?
The IC50 was 9 nM.

B2 was tested. Which IC50 did it give?
The IC50 was 26 nM.

For B3, which IC50 is on record?
The IC50 was 80 nM.

How did the IC50 turn out when B4 was run?
Its IC50 is 45 nM.

Which IC50 does the source give for B5 here?
The IC50 was 0.65 nM.

Molecular target: T2, human Ang-1
Assay: competition ELISA vs Tie-2

With M[Fc]GGGGGAQTNIQEECEWDPWTCDHMPGKLE (not fully specified; cysteine pairing not given here) [Con4-40 (C)] as the binder, how does the IC50 read?
The IC50 was over 1000 nM.

Molecular target: T3, mouse Ang-2
Assay: competition ELISA vs Tie-2

Which IC50 does the source give for M[Fc]GGGGGAQTNIQEECEWDPWTCDHMPGKLE (not fully specified; cysteine pairing not given here) [Con4-40 (C)] here?
Its IC50 is 0.27 nM.

Molecular target: T4, rat Ang-2 (rAng-2)
Assay: competition ELISA vs Tie-2

Which IC50 does the source give for M[Fc]GGGGGAQTNIQEECEWDPWTCDHMPGKLE (not fully specified; cysteine pairing not given here) [Con4-40 (C)] here?
Its IC50 is 0.35 nM.

Molecular target: T1, human Ang-2
Assay: competition ELISA vs Tie-2
Remark: another data set of the same source

With B6 as the binder, how does the IC50 read?
Its IC50 is 8.6 nM.

How did the IC50 turn out when MGAQYKFTPLDDLEQTLYEQWTLQHVLEGGGGG[Fc(3)] [L1-12 (N)] was run?
Its IC50 is 0.08 nM.

With M[Fc(7)]GGGGGAQKLEYCDGMEDPFTQGCDNQSLE (not fully specified (bridges); cysteine pairing not given here) [12-9-2 (C)] as the binder, how does the IC50 read?
The IC50 was 8.42 nM.

How did the IC50 turn out when M[Fc(7)]GGGGGAQLQDYCEGVEDPFTFGCENQRLE (not fully specified (bridges); cysteine pairing not given here) [12-9-C2 (C)] was run?
The IC50 was 1.41 nM.

MGAQQNFKPMDELEDTLYKQFLFQHSLEGGGGG[Fc(3)] [L1-11 (N)] was tested. Which IC50 did it give?
The IC50 was 0.07 nM.

How did the IC50 turn out when MGAQSKFKPLDELEQTLYEQWTLQHALEGGGGG-Fc [L1-9 (N)] was run?
Its IC50 is 1.62 nM.

How did the IC50 turn out when MGAQTKFQPLDELDQTLYEQWTLQQRLEGGGGG-Fc [L1-C2 (N)] was run?
The IC50 was 0.05 nM.

For M[Fc(7)]GGGGGAQAQDYCEGMEDPFTFGCEMQKLE (not fully specified (bridges); cysteine pairing not given here) [12-9-4 (C)], which IC50 is on record?
The IC50 was 2.05 nM.

With MGAQTNFQPLDELDQTLYEQWTLQQRLEGGGGG-Fc [L1-C3 (N)] as the binder, how does the IC50 read?
Its IC50 is 0.06 nM.

For MGAQTNYKPLDELDATLYEHWILQHSLEGGGGG[Fc(7)] [AC6-L1 (N)], which IC50 is on record?
Its IC50 is 0.03 nM.

How did the IC50 turn out when B7 was run?
The IC50 was over 1000 nM.

Which IC50 does the source give for M[Fc(7)]GGGGGAQLQDYCEGVEDPFTFGCEKQRLE (not fully specified (bridges); cysteine pairing not given here) [12-9-C1 (C)] here?
The IC50 was 2.68 nM.

For MGAQLNFTPLDELEQTLYEQWTLQQSLEGGGGG[Fc(3)] [L1-2 (N)], which IC50 is on record?
Its IC50 is 0.04 nM.

Which IC50 does the source give for M[Fc(7)]GGGGGAQLLDYCEGVQDPFTFGCENLDLE (not fully specified (bridges); cysteine pairing not given here) [12-9-5 (C)] here?
Its IC50 is 1.56 nM.

For MGAQQEYEPLDELDETLYNQWMFHQRLEGGGGG[Fc(3)] [L1-13 (N)], which IC50 is on record?
Its IC50 is 0.05 nM.

How did the IC50 turn out when MGAQYKFNPMDELEQTLYEEFLFQHALEGGGGG-{Fc″} [L1-22 (N)] was run?
The IC50 was 0.09 nM.

Molecular target: T1, human Ang-2
Assay: competition ELISA vs Tie-2
Remark: another data set of the same source

With M[Fc]GGGGGAQTNIQEECEWDPWTCDHMPGKLE (not fully specified; cysteine pairing not given here) [Con4-40 (C)] as the binder, how does the IC50 read?
The IC50 was 0.2 nM.

Molecular target: T3, mouse Ang-2
Assay: competition ELISA vs Tie-2
Remark: another data set of the same source

With B1 as the binder, how does the IC50 read?
Its IC50 is 13 nM.

With B2 as the binder, how does the IC50 read?
Its IC50 is about 200 nM.

B8 was tested. Which IC50 did it give?
The IC50 was 1.9 nM.

How did the IC50 turn out when B3 was run?
Its IC50 is about 700 nM.

For B4, which IC50 is on record?
The IC50 was 33 nM.

For B5, which IC50 is on record?
Its IC50 is 0.8 nM.

Molecular target: T1, human Ang-2
Assay: competition ELISA vs Tie-2
Remark: another data set of the same source

How did the IC50 turn out when M[Fc]GGGGGAQTNIQEECEWDPWTCDHMPGKLE (not fully specified; cysteine pairing not given here) [Con4-40 (C)] was run?
Its IC50 is 0.1 nM.

Molecular target: T2, human Ang-1
Assay: competition ELISA vs Tie-2
Remark: another data set of the same source

B1 was tested. Which IC50 did it give?
Its IC50 is over 1000 nM.

How did the IC50 turn out when B2 was run?
Its IC50 is over 1000 nM.

How did the IC50 turn out when B3 was run?
The IC50 was over 1000 nM.

Which IC50 does the source give for B4 here?
Its IC50 is over 1000 nM.
